# Data as given in publication PMC9490041 (2022).
# Read-outs that look alike come from different tables or passages of the source. Ends that are not written are not given here. * marks the point of attachment. FITC = O=C1OC2(c3ccc(O)cc3Oc3cc(O)ccc32)c2ccc(NC(=S)*)cc21; Dansyl = CN(C)c1cccc2c(S(=O)(=O)*)cccc12
# Legend:
# [1] = target: PSG (PSD-95), PDZ3-SH3-GK supramodule, wild type
# [2] = target: PSG (PSD-95), PDZ3-SH3-GK supramodule, wild type; assay: FP
Binder,Kd [1] [nM],Kd [2] [nM]
"Dansyl-KTESKKHGRWKLWFL [15 AA INSY2, dansylated (DNS-KTESKKHGRWKLWFL)]",161000,–
"Dansyl-GKKVLDTKNYKQTSV [15 AA CRIPT, dansylated (DNS-GKKVLDTKNYKQTSV)]",490,–
Dansyl-AQRGSFPPWVQQTRV [15 AA SynGap (DNS-AQRGSFPPWVQQTRV)],550,–
"Dansyl-RDGCHRLPKIKETTV [15 AA FRPD4, dansylated (DNS-RDGCHRLPKIKETTV)]",760,–
{FITC}-PLVGQDIIDLQTEV [FITC-14 AA ADGRB1],–,60000
